Assay results taken from the Immune Epitope Database (IEDB).

How the values were obtained:
HLA-B*44:03 = assay: IEDB peptide-MHC binding, purified MHC/competitive/radioactivity; filed as Kd, often an IC50 or EC50 that approximates it; ≥ and ≤ were set here for values at or beyond the usual limits of such assays
HLA-B*40:01 = assay: as above
HLA-B*44:02 = assay: as above
HLA-A*23:01 = assay: as above
HLA-A*24:02 = assay: as above
HLA-A*30:02 = assay: as above
HLA-A*29:02 = assay: as above
HLA-A*01:01 [1] = assay: as above
HLA-A*26:01 = assay: as above
HLA-A*69:01 = assay: IEDB peptide-MHC binding, purified MHC/direct/fluorescence; filed as Kd, often an IC50 or EC50 that approximates it; ≥ and ≤ were set here for values at or beyond the usual limits of such assays; settings: source organism: Homo sapiens
HLA-B*07:02 = assay: as above; settings: source organism: Homo sapiens
HLA-B*53:01 = assay: IEDB peptide-MHC binding, purified MHC/competitive/radioactivity; filed as Kd, often an IC50 or EC50 that approximates it; ≥ and ≤ were set here for values at or beyond the usual limits of such assays
HLA-A*11:01 [2] = assay: IEDB peptide-MHC binding, purified MHC/direct/fluorescence; filed as Kd, often an IC50 or EC50 that approximates it; ≥ and ≤ were set here for values at or beyond the usual limits of such assays; settings: source organism: Homo sapiens
HLA-A*03:01 [3] = assay: as above; settings: source organism: Homo sapiens
HLA-B*58:01 = assay: as above; settings: source organism: Homo sapiens
HLA-A*01:01 [4] = assay: as above; settings: source organism: Homo sapiens
HLA-A*33:01 = assay: IEDB peptide-MHC binding, purified MHC/competitive/radioactivity; filed as Kd, often an IC50 or EC50 that approximates it; ≥ and ≤ were set here for values at or beyond the usual limits of such assays; settings: source organism: SARS coronavirus Tor2
HLA-A*11:01 [5] = assay: as above; settings: source organism: SARS coronavirus Tor2
HLA-A*03:01 [6] = assay: as above; settings: source organism: SARS coronavirus Tor2
HLA-A*31:01 = assay: as above; settings: source organism: SARS coronavirus Tor2
HLA-A*68:01 = assay: as above; settings: source organism: SARS coronavirus Tor2
[7] = source organism: Dengue virus 3 Martinique/1243/1999
[8] = source organism: Dengue virus 4 Philippines/H241/1956
[9] = source organism: Mammarenavirus lassaense
[10] = source organism: Mammarenavirus whitewaterense
[11] = source organism: SARS coronavirus Tor2
[12] = source organism: Dengue virus 1 Brazil/97-11/1997
[13] = source organism: Dengue virus 2 Jamaica/1409/1983
[14] = source organism: Mammarenavirus guanaritoense

## AELEEGVYR
HLA-B*44:03; [7]
  Kd: 9270 nM

## AEYTNSVTNI
HLA-B*44:03; [8]
  Kd: 51.6 nM
HLA-B*40:01; [8]
  Kd: 158 nM
HLA-B*44:02; [8]
  Kd: 280 nM

## AGFPAGLTY
HLA-A*23:01; [9]
  Kd: ≥ 77700 nM
HLA-A*24:02; [9]
  Kd: ≥ 77500 nM
HLA-A*30:02; [9]
  Kd: 287 nM
HLA-A*29:02; [9]
  Kd: 68.9 nM
HLA-A*01:01 [1]; [9]
  Kd: ≥ 78100 nM
HLA-A*26:01; [9]
  Kd: ≥ 77900 nM

## AYTSSDDEI
HLA-A*23:01; [10]
  Kd: 1580 nM
HLA-A*24:02; [10]
  Kd: 4870 nM
HLA-A*29:02; [10]
  Kd: 1590 nM

## CKDGHVETFY
HLA-A*23:01; [11]
  Kd: ≥ 70000 nM
HLA-A*24:02; [11]
  Kd: ≥ 70300 nM
HLA-A*30:02; [11]
  Kd: 506 nM
HLA-A*29:02; [11]
  Kd: 171 nM
HLA-A*01:01 [1]; [11]
  Kd: 8080 nM
HLA-A*26:01; [11]
  Kd: 3870 nM

## DEDNPYKTW
HLA-B*44:03; [12]
  Kd: 640 nM
HLA-B*44:02; [12]
  Kd: 519 nM

## DNAFNCTFEY
HLA-A*23:01; [11]
  Kd: ≥ 70000 nM
HLA-A*24:02; [11]
  Kd: ≥ 70300 nM
HLA-A*30:02; [11]
  Kd: 382 nM
HLA-A*29:02; [11]
  Kd: 14.4 nM
HLA-A*01:01 [1]; [11]
  Kd: 4250 nM
HLA-A*26:01; [11]
  Kd: 132 nM

## EEALKGLPI
HLA-B*40:01; [7]
  Kd: 3380 nM

## EERVILAGPM
HLA-B*40:01; [13]
  Kd: 2740 nM
HLA-B*44:02; [13]
  Kd: 2280 nM

## EPEPHILLF
HLA-A*69:01
  Kd: 7050 nM
HLA-B*07:02
  Kd: 5470 nM

## FDEISMATNY
HLA-A*23:01; [11]
  Kd: ≥ 70000 nM
HLA-A*24:02; [11]
  Kd: ≥ 70300 nM
HLA-A*30:02; [11]
  Kd: 4100 nM
HLA-A*29:02; [11]
  Kd: 18.4 nM
HLA-A*01:01 [1]; [11]
  Kd: 13000 nM
HLA-A*26:01; [11]
  Kd: 699 nM

## FPQSNAVIQ
HLA-B*53:01; [12]
  Kd: 527 nM

## FSGALDTTSY
HLA-A*23:01; [11]
  Kd: ≥ 70000 nM
HLA-A*24:02; [11]
  Kd: ≥ 70300 nM
HLA-A*30:02; [11]
  Kd: 451 nM
HLA-A*29:02; [11]
  Kd: 678 nM
HLA-A*01:01 [1]; [11]
  Kd: 1310 nM
HLA-A*26:01; [11]
  Kd: 9150 nM

## FYFTNDVSFL
HLA-A*23:01; [11]
  Kd: 59.2 nM
HLA-A*24:02; [11]
  Kd: 47.5 nM
HLA-A*30:02; [11]
  Kd: ≥ 34200 nM
HLA-A*29:02; [11]
  Kd: 384 nM
HLA-A*01:01 [1]; [11]
  Kd: 2000 nM
HLA-A*26:01; [11]
  Kd: 9340 nM

## HEEPVPMSTY
HLA-B*44:03; [7]
  Kd: 409 nM
HLA-B*44:02; [7]
  Kd: 106 nM

## HFAIGLALYY
HLA-A*23:01; [11]
  Kd: ≥ 60900 nM
HLA-A*24:02; [11]
  Kd: ≥ 70300 nM
HLA-A*30:02; [11]
  Kd: 236 nM
HLA-A*29:02; [11]
  Kd: 0.233 nM
HLA-A*01:01 [1]; [11]
  Kd: 2320 nM
HLA-A*26:01; [11]
  Kd: 6.53 nM

## IEKASFIEV
HLA-B*40:01; source organism: Dengue virus 2 Peru/IQT2913/1996
  Kd: 4040 nM

## IESQKNGSW
HLA-B*44:03; [7]
  Kd: 166 nM
HLA-B*44:02; [7]
  Kd: 452 nM

## ILGPPGSVY
HLA-A*11:01 [2]
  Kd: 1660 nM
HLA-A*03:01 [3]
  Kd: 852 nM
HLA-B*58:01
  Kd: 326 nM
HLA-B*07:02
  Kd: ≥ 33100 nM
HLA-A*01:01 [4]
  Kd: 6420 nM

## KEAKMLLDNI
HLA-B*44:03; [13]
  Kd: 1760 nM

## KEENMVKSL
HLA-B*40:01; [7]
  Kd: 156 nM

## KEGDQYIYM
HLA-B*40:01; source organism: Dengue virus 1 Nauru/West Pac/1974
  Kd: 45.1 nM

## KEIGRMLNI
HLA-B*44:03; [13]
  Kd: 417 nM
HLA-B*40:01; [13]
  Kd: 216 nM
HLA-B*44:02; [13]
  Kd: 418 nM

## KSAQCFKMFY
HLA-A*23:01; [11]
  Kd: 5090 nM
HLA-A*33:01
  Kd: 753 nM
HLA-A*11:01 [5]
  Kd: 2250 nM
HLA-A*03:01 [6]
  Kd: 5060 nM
HLA-A*31:01
  Kd: 629 nM
HLA-A*24:02; [11]
  Kd: 4700 nM
HLA-A*30:02; [11]
  Kd: ≥ 21200 nM
HLA-A*68:01
  Kd: 1450 nM
HLA-A*29:02; [11]
  Kd: 75.3 nM
HLA-A*01:01 [1]; [11]
  Kd: ≥ 89300 nM
HLA-A*26:01; [11]
  Kd: ≥ 86900 nM

## KSFEIDKGIY
HLA-A*23:01; [11]
  Kd: ≥ 70000 nM
HLA-A*24:02; [11]
  Kd: ≥ 70300 nM
HLA-A*30:02; [11]
  Kd: 4.75 nM
HLA-A*29:02; [11]
  Kd: 984 nM
HLA-A*01:01 [1]; [11]
  Kd: 780 nM
HLA-A*26:01; [11]
  Kd: 5510 nM

## KYILIQAGF
HLA-A*23:01; [14]
  Kd: 1.77 nM
HLA-A*24:02; [14]
  Kd: 11.9 nM
HLA-A*29:02; [14]
  Kd: 3740 nM

## LATGPITTLW
HLA-B*53:01; [7]
  Kd: 78.6 nM

## LATGPLTTLW
HLA-B*53:01; [12]
  Kd: 98.4 nM

## LEELGDGLAM
HLA-B*40:01; [12]
  Kd: 51.2 nM

## LLEKCDLQNY
HLA-A*23:01; [11]
  Kd: ≥ 70000 nM
HLA-A*24:02; [11]
  Kd: ≥ 70300 nM
HLA-A*30:02; [11]
  Kd: 7030 nM
HLA-A*29:02; [11]
  Kd: 3260 nM
HLA-A*01:01 [1]; [11]
  Kd: 70.7 nM
HLA-A*26:01; [11]
  Kd: ≥ 82800 nM
